{"source": "the DeepSol protein solubility set"}
{"assay": "soluble on expression in E. coli; label from the status in PepcDB or PDB records"}
{"sequence": "MSLNAGKVVQTAKLFQDIHPEERLEKTLVDDRFAALREVIAGRTDGGQSGGGTMQIASLLTMLNEYYTQLTIADSALAAGTLPARITAADKLQLEAAKLPAPLKNILLDLTKQGTRKINAGTGDVLNTQMEAMMGDDCRDAIDGRYPFADSPQEVSAEDFNRIFASGGVLDAFWSKQLAPLADTASDPWRYKPTEGNMTLQGPDLTPFQQAKQIRSVFFNSEGGKKFSWSMQISVVDMDPAIMELVIDIDGQVLRYAHGPDRPLKVTWPGPRNGSMAEITASPRIRQDTSTLLTGGPWALFHLLDAGMVQETAVRGRQLVEYDFDGRRVVLEITAGRDFNPVSRELLQNFSCPARALEGHHHHHH", "soluble on expression in E. coli": "not soluble"}
{"sequence": "MSLNALYNSLKQRLESGEWLAGQRMPSIRKLASTSEASYHDAVTAYARLVSEGLLSASPGRGYFVNSGASQAVSPREPECMSADPLFRLLQAGPQYTKLGGGWLPPAWRDTELLAKAIRRTARLEQSSLAEYGDISGYLPMRKQLCVHMKRLTRIDIRPSQVLSTLGATQGLDLVARLLIKAGDHVFVDEPGNGNLIRLIQLAGGHVVGVRRTQDGPDIAEMESYLAKHTVKAFFCNSTFHNPTGSNISPHNAFKVLRLAVEHEFFVVEDDVYGDFSPTVRQTFAELDNLDRVIYIGSFSKCLSASLRVGYIACSQELIEPLTRLKLLTCVAVPAFCERFVNTILADGTYARHMQDVQQRLISQQVQTQRSLLARGWKFDIAPQGGMFIWAYHPDITDLQPFMTKLEQHRILLMPGSAFSVTRDYQRFARINCTHFSEAVEAHFSV", "soluble on expression in E. coli": "not soluble"}
{"sequence": "MSLNAQTKSLHQLQQEFVDLRCGMFIHFNMPTFFNEDWPDPDAAPELFNPVRMDCKQWAKAAKSANMTYGCLTTKHHSGFCIWDTKTTDYSVMSSPFKRDVVKEYADAFRAEGMKVMLYYSILDTHARLRPKCITPQHIEMIKEQLRELLTNYGEITALIIDGWDAPWSRISYDDVPFEDIYRLVKSIQPNCLVMDLNAAKYPAEALFYTDIKSYEQGAGQHISKDTNRLPALSCLPLQQNWFWKESFPTTPVKSPAQMVNDNIIPMGKSYCNFILNVAPNRDGLMDANALKALKEIGKLWKNDGRVATVPEADAPIISSNIAKYQPAEGTWSSDYAIMDFANDDDFGTCWNSNPEVKVPWYSVTFEREKSFNMVVITDRNNDRLQEYRLEYRAGGTWKPLYEGKAPTGLRVKIHRFDTVWGDAVRMTVLNSNGTTSIAEFGVYCEREGHHHHHH", "soluble on expression in E. coli": "soluble"}
{"sequence": "MSLNDQYEALYQTFRWLVPTQFNIADACCHRWAASSPDARRIAIYYEDEAGNREVWTYARLAEAANQLANGLVKMGVERGDRVGVVLGQRPETVVAHMAIYSVGAVVLPLSPLFGPEALESRLRDADARVAIVDYASSANLLAISDNCPNLHQIIGIGFADERVLPWRSLLARQPNEFKMVATRASDPAILMYTSGTTGAPKGALLPHSVLIGNLPGFVASQDWFPRPGDVFWSPADWAWTGGMMDALLPTLYFGHPIVGTRGRFTPERAFELMERYQVTNTFLFPTALKMMMKSVPEPRGRYQLALRSIMSAGESVGETVFEWCEQALGITPNEMFGQTELNYVVGNSNRRWPARPGSMGRPYPGHRVAVIDEAGRPVKPGETGEVALNRFDIHGFPDPVLFLGYWRNEAATAAKFTDDWCRTGDLASIDADGYLWYAGRADDVFKSAGYRIGPGEIENCLLGHPAVANAAVVPKPDAERGALVKAYVVLTPEYQGRDPDSITQVLQEHVRDRLAPYEYPKEIEYVDALPMTTTGKIQRAVLRRREAERASGAHSEGHHHHHH", "soluble on expression in E. coli": "not soluble"}
{"sequence": "MSLNEPDGVLSYQRPDEEAVVDQGGTSTILNIHYEKEELEGHRTLYVGVRMPLGRQSHRHHRTHGQKHRRRGGRGKGASQGEEGLEALAHDTPSQRVQFILGTEEDEEHVPHELFTELDEICMKEGEDAEWKETARWLKFEEDVEDGGERWSKPYVATLSLHSLFELRSCLINGSVLLDMRASSIEEISDLILDQQELLRDLSDSVRVKVREALLKKHHHQNERRRNNLIPIVRSFAEVGKKQSDPHSMDRDGQTVSPQSATNLEVKNGVNCEHSPVDLSKVDLHFMKKIPTGAEASNVLVGEVDTLDRPIVAFVRLSPAVLLSGLTEVPIPTRFLFILLGPVGKGQQYHEIGRSMATIMTDEIFHDVAYKAKERDDLLAGIDEFLDQVTVLPPGEWDPSIRIEPPKNVPSQEKRKMPGVPNGNVCHIEPEPHGGHSGEGHHHHHH", "soluble on expression in E. coli": "soluble"}
{"sequence": "MSLNEPLPDRQTELPAVKKENHGEYLQPRDLSKIPNTAFGDQVKRGYSLFVNSQQMRGKYVGNEQNCVNCHMEAGRKANAAPLWAAYMAYPAYRKKNDRVNSYADRIQGCFEYSMNGKAPAYDSPEIVALSAYAYWLAMGGLLDEGHHHHHH", "soluble on expression in E. coli": "soluble"}
{"sequence": "MSLNERAKIKIIPLGGINEIGKNITAIEYKEDIIIIDCGLKFPDDDMFGIDIVIPDVSYLIKNSEKIKGIFLTHGHEDHIGALPYVLRQLNVPVYGTKLTLGIVETKLKEHGLLASTELVRVKPKDIIKLDSVSVEFIKTNHSIADSVAIAVHTPLGVVLHTGDFKIDYTPIDGEMMDFGRLAELGRKGVLVLMADSTNVERPGYTMTEKVVGETFLRLFGKAKGRLIVATFASNVHRIQQIITAAEAYEKKVAVSGRSMENIVQVAIELGYLTVGKDVLVPVDQISKYPNEKIVVITTGSQGEPMSALARMAASEHRKINVIPGDTVIISATPIPGNEKFVSKVINQLFKKGAQVIYDSQEKIHVSGHACQEELKLMQALVKPKFFVPVHGEYRHLKKHGELAMEVGLSEKNLLIPENGDVIEVAREGHHHHHH", "soluble on expression in E. coli": "soluble"}
{"sequence": "MSLNGFCARLRAITFNERLKMKIAVLLSGGVDSSYSAYSLKEQGHELVGIYLKLHASEKKHDLYIKNAQKACEFLGIPLEVLDFQKDFKSAVYDEFINAYEEGQTPNPCALCNPLMKFGLALDHALKLGCEKIATGHYARVKEIDKVSYIQEALDKTKDQSYFLYALEHEVIAKLVFPLGDLLKKDIKPLALNAMPFLGTLETYKESQEICFVEKSYIDTLKKHVEVEKEGVVKNLQGEVIGTHKGYMQYTIGKRKGFSVKGALEPHFVVGIDAKKNELIVGKKEDLATHSLKAKNKSLTKDFKDGEYFIKARYRSVPTKAFVSLKDGMIEVEFKEPFYGVAKGQALVVYKDDILLGGGVIVEGHHHHHH", "soluble on expression in E. coli": "soluble"}
{"sequence": "MSLNGQNTISDIGDATEDQIKDVIQIMNDNIDKFLERQERVSLLVDKTSQLNSSSNKFRRKAVNIKEIMWWQKVKNITLLTFTIILEGHHHHHH", "soluble on expression in E. coli": "not soluble"}
{"sequence": "MSLNHILETLIKLLKVGMEAIDRKGLIAILTSSIGNDEMDDSEQAVMVYNELIDKLQLNIPKDVDYRPNIYSYFGIQKKPNDTILVEMMISIFHIKRFDSELFVFKDKGWQKVNEDELQGLISKMIQVLLVDYKPSLSILKNVVVGLQNSIDVEELVENKQYIGCGHNMFNLDAFEVVGNSIKIFPATRLNLELVKSDVITEKTPPHFNRYMLEFANFDSDLQYFLFQHIAVLLTANTKYRRALLLYGGAKNGKSVFINLVRSFFYSEDIVSKALNELQGRFDKESLVGKKLMASDEIGESRIQEKIVNDLKKLVSVEPVHVDRKGKTQVETTLDLKLAFGTNARLNFPSAHAKALERRIAVIPCEYYVEKADPDLIEKLQDEKKEIFLYLMYVYKQIVKNDIEYLQNDRVTEISHDWLNFGYEFVSSKSASIANQKACINLLRKLIEIKPGSRIKVSELNKVINEEIKVSSQVIKQLIQANFDTQTKLYNGYDYWIDLGWKEADKKEIHDISKKDNIISLDKNENITDDETLDEENLDFDWEDFDDEGHHHHHH", "soluble on expression in E. coli": "soluble"}
{"sequence": "MSLNIKRFVSWDCVNGIKGVLNENGKFSNNPMGVLNWIKAQTSEIPTILLVRDFHKFYDDPSISRTIKELSSSLRETNNNLILSSHILPSSEELDDLITILNLPLPDLSELTALIKKIAFNTDSDLSEQDLNELAIASSGLSEIKVKQVTAKALAQRGKISEGHHHHHH", "soluble on expression in E. coli": "not soluble"}
{"sequence": "MSLNILIIGPSWVGDMMMSHSLYQQLKIQYPNCNIDVMAPNWCKPLLARMPEVRKAIEMPLGHGAFELGTRYRLGKSLREQYDMAIVLPNSLKSAFIPFFAKIVHRRGWKGESRYILLNDLRANKKDYPMMVQRYVALAFEKDVIPKADDIPVLKPYLTVEPAQQAETLKKFEKQTALLGERPIIGFCPGAEFGPAKRWPHYHYAKLAEMLITQGYAVALFGSAKDEPVGEEIRQALPEELREFCVNLAGKTNLNEAVDLIANCTAVVTNDSGLMHIAAAVNRPLIALYGPTSPQYTPPLSDKATIIRLIEGELIKVRKGDKEGGYHQSLIDITPEMALEKLNELLAKEGGSHHHHHH", "soluble on expression in E. coli": "soluble"}
{"sequence": "MSLNKSVIGTKQMVVSPHYLASQAGNRILDKGGNAFDAAVAVSACLAVVYPHMTGLGGDSFWLTFHQETKAVKVYNGSGRSGKNVTRDVYKGKSAIPLRGIDSAITVPGMVDSWDAVLKEYGRLSLADVLEPARDYAQNGFPVSADQCRHTEKNIELLASTPYTADIFTRRGKAPVPGERFVQKELADSLNLIAEKGRSAFYEGDLAQRIVSHLQNNGSYMTIDDFKAHRGEWAAPVSSDYRGYSVYQAPPNSQGFTGLLTLNILENYDFTQIEHGSFEYYHVLVEALKKSFLDRDAVLTDPAFADIPLERLLDKRYAKQLAEEIGYLAIPAESRPVGSDTAYAAVIDADGNAVSFIQSLYFEFGSAVTAGDTGILLQNRGSFFSLDENHVNTLEPRKRTFHTLMPAMVCKGGKPKILYGTQGGEGQPQTQTAIITRMLDYGMHPQQAISEPRWVWGRTWGEEYEGLRVEGRFTDKTIQKLKDSGHLVEVVGDYDPLMGQAAAIKVDEEGFLQGGADPRGDGAAVGEGHHHHHH", "soluble on expression in E. coli": "not soluble"}
{"sequence": "MSLNLKDLIERERNCQKKKAFNCSFLDYLDIVKENPEVCKFAHKRIYDLIIKQGFHIVDKNESIKKYNFFGEDFFGIDKTLMKIVNYFYAASMEGEESKQVLYLVGPVGSGKSSIVEAIKIALEDSEPIYALENCPMREEPLHLIPNNLRRKFEKELDLKIEGDLCPVCTYRLREEFNGEIEKFPVQKIGFSIKERRGVGVVPPVDPNNQDTSVLVGSVDISKMDIYSEHDPRIFSLNGAFNVGNRGIVEFIEIFKNDIEYLHSIITATQEKLIPSPGKGSMVYYDGVIIAHSNEGEWNKFKSDPTNEAILDRIVKIEVPYCLELDEEKKIYKKILKNSNFQVHIAPHTIDVAAMFAILTRLNSSEKVDLMTKLKIYNGEEIVEKASIKKIEREELEEECRQKEGMTGVSTRFIIKAINNAICESNCSCINPIDVINSLITAVKEKDLCEEVEDKYISFLEDVVRKEYNKILYKEITKFFIESFNSQGEALFNNYLDHAEAYVNKVYLKDNITGENLDPDEEFMREIEEEIGVTENSSKGFRKDVVAYILYLIRKGEEINCNCYKPLKEAIERKLISSSREISRIINPSKIRNKAQDEKYKFIVEKLKNNGYCDTCAFYTLRYAANNFWRDEGHHHHHH", "soluble on expression in E. coli": "soluble"}
{"sequence": "MSLNNDRFAKQRVADDLDEPVEEAGNLARKLGLKPYPVNYWIVDYDEMNELIAYGGFQQRYPHWRWGMQYDRQQKQGQFLGGKAFEIVNNDDPAHAFLQESNTLADQKAVITHVEAHADFFANNEWFRMFTDGSSRTTTDESGEDRRRGPDAAGMLARHGDTIQEYMQDPDIERAEVERFIDHVLCLEDNIDQHIPYSPVETVPEEFEDIEGADVTEQLDDLELSEEVKRQVFDEEWLDAQRDDDENVTFPAEPDKDVLGFLRKHGMQYDADAERATEMEDWQIELLELLRREAYYFAPQKMTKVMNEGWASYWESLMMTGEQFAGDDEFILYSDHMSKVLGSGGLNPYSLGLEIWEYVENTENRREVIERLLRVKGITWRNFDDSVDYEMVQGRESHNDVTFLDEFLTQEFVDDNDYFTYEYTHASGDYRVTSTDHEDVKKKLMLQFTNFGKPTVVVEDGNYQNRNELLLAHQYNGVMLDIGQAKEVLKRTFELWGRPVNLLTIVKEFDDHDVEVAKREGHHHHHH", "soluble on expression in E. coli": "not soluble"}
